For experiment [1], the target named is GPRC5D (G-protein coupled receptor family C group 5 member D), human, on multiple myeloma cell lines (human) (UniProt Q9NZD1). In words: cell-based or functional assay.
The target of experiment [2] is CD3 (Cluster of Differentiation 3 protein), human, on T cells / Jurkat cells (human) (UniProt P07766). In words: FACS, CD3+ T cells isolated from normal donors.
CD3 (Cluster of Differentiation 3 protein), human, on T cells / Jurkat cells (human), sequence (P07766 23-207, chain 1 of 3): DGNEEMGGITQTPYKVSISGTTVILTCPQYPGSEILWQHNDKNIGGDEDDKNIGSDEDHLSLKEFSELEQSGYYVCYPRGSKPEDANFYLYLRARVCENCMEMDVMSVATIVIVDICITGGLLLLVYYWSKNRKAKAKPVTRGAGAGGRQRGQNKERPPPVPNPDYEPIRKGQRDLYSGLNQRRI
CD3 (Cluster of Differentiation 3 protein), human, on T cells / Jurkat cells (human), sequence (P04234 22-171, chain 2 of 3, further chain): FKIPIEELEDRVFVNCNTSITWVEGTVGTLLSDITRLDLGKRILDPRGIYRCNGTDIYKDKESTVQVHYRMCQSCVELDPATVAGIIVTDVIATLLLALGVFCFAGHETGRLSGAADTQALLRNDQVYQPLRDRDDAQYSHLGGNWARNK
CD3 (Cluster of Differentiation 3 protein), human, on T cells / Jurkat cells (human), sequence (P09693 23-182, chain 3 of 3, further chain): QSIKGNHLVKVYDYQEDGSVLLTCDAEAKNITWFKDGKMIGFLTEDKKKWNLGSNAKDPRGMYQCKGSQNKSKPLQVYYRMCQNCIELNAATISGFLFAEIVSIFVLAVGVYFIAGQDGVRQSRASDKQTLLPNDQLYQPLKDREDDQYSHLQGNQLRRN

GPRC5D (G-protein coupled receptor family C group 5 member D), human, on multiple myeloma cell lines (human), sequence (Q9NZD1 whole entry): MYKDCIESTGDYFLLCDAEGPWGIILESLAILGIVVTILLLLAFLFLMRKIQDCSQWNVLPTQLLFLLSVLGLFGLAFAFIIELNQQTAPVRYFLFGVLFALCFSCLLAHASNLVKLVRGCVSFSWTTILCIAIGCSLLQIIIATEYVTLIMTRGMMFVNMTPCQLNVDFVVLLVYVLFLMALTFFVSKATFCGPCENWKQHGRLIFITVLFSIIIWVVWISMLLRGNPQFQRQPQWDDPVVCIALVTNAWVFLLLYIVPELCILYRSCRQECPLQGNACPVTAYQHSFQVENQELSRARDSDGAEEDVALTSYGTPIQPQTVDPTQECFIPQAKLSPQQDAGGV

As to IgG1 (antibody), in experiment [1], the Top (%), T-Cell Dependent Cytotoxicity, MM.1S was 6.08%; the Top (RLU), luciferase assay, L363 was 23.4 RLU; the Top (RLU), luciferase assay, MM.1S is 30.7 RLU; the Top (RLU), luciferase assay, RPMI8226 was 5.33 RLU. In experiment [2], this substance displayed a Top (MFI) of 124 MFI.

The values above are taken from patent US20260193348A1.
